Test results published in US20130209464A1.

Target: HIV-1 MN strain envelope (Env) on Env-pseudotyped virus (HIV-1 MN strain) (UniProt P05877)
Experiment: cell-based or functional assay

Chain of HIV-1 MN strain envelope (Env) on Env-pseudotyped virus (HIV-1 MN strain) (P05877 32-856 limits assumed): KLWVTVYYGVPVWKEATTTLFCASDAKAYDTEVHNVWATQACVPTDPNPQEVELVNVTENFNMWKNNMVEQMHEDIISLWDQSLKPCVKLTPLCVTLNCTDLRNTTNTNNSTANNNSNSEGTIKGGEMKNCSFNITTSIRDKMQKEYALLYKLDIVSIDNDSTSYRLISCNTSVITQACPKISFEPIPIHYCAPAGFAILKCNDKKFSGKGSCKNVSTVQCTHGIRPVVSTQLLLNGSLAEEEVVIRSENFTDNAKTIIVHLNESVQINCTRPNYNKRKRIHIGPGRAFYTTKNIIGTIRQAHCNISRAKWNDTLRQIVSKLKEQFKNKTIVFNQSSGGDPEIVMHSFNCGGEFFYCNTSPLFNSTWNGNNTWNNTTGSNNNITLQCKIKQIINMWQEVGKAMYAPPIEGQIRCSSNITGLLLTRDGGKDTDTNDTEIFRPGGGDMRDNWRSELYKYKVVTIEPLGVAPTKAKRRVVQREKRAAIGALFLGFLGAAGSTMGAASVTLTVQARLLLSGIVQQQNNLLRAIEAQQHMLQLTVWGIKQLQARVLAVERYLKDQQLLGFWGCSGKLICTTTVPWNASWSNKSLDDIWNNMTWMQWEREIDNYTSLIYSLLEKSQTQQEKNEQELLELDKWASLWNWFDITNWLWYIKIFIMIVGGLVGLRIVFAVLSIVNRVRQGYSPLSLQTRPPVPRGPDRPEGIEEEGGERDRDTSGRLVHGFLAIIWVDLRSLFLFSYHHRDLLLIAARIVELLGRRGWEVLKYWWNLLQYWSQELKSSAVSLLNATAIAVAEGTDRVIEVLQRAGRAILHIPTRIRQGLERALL

Substance: native actinohivin (AH) polypeptide (from UniProt Q9KWN0 47-160)
- 50% inhibitory concentration (IC50), neutralization of Env-pseudotyped virus, TZM-bl luciferase reporter assay: 0.5 µg/mL
